B1: Ribonuclease, P00648 (parent)
chain: MMKMEGIALKKRLSWISVCLLVLVSAAGMLFSTAAKTETSSHKAHTEAQVINTFDGVADYLQTYHKLPDNYITKSEAQALGWVASKGNLADVAPGKSIGGDIFSNREGKLPGKSGRTWREADINYTSGFRNSDRILYSSDWLIYKTTDHYQTFTKIR

Variants of: B1
Conditions: Bacillus amyloliquefaciens; pH 6.3; 25 °C; Urea; Fluorescence; MES 50 micro M; reversible: yes; structure 1BNI; whole UniProt chain shown

Variant | ddG of mutation (higher = less stable) [kJ/mol]
Y60A | 15.5
L80Q | 5.44
T73A | 8.08
T73G | 5.94
I98V | 7.53
N105A | 9.08
V57T | 10.4
V57A | 14.2
N52A | 7.74
S138A | 8.12
K109R | 1.8
I156V | 3.18
I102V | 1.26
T63S Y64A | 10.7
I123V | 3.43
V92A | 7.2
V92T | 9.71
Y60A Y64A | 20.9

Variant | ddG of mutation (higher = less stable) [kJ/mol]
I72V | 4.69
T53G | 5.06
T53A | 9
Y64A | 10.2
N124A | 6.95
T152V | 9.41
H65Q | 6.02
L61A | 18.1
N131A | 8.45
V83T | 4.81
I135V | 5.61
S139A | 11.7
E76G | 7.36
I51V | 2.8
T63R | -1.97
T63S | 7.03
Y125F | 5.65
T146V | 12.5
